Experimental data: the RNAGym collection of RNA variant scans (doi:10.1093/molbev/msab373)

B1: Azoarcus group I ribozyme (parent)
chain: GUGCCUUGCGCCGGGAAACCACGCAAGGGAUGGUGUCAAAUUCGGCGAAACCUAAGCGCCCGCCCGGGCGUAUGGCAACGCCGAGCCAAGCUUCGGCGCCUGCGCCGAUGAAGGUGUAGAGACUAGACGGCACCCACCUAAGGCAAACGCUAUGGUGAAGGCAUAGUCCAGGGAGUGGCGAAAGUCACACAAACCGG

Variants of: B1
Assay: reverse-splicing fitness (ratio to wild type); higher = more active; in vitro selection; Mg2+ level not given
Outline: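 An in vitro group I ribozyme library with randomized positions was T7-transcribed and gel-purified. In triplicate, 10 pmol RNA in EPPS pH 7.5 was reacted with 50 pmoles of a 30-nt RNA substrate for 1 h at 37 °C across several added MgCl2 levels (1–48 mM), then stopped with EDTA. Products were reverse transcribed from a substrate-complementary primer, PCR-amplified and sequenced (HiSeq 4000). Fitness is a variant's read proportion after selection over that before, normalised to wild type.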

Question: Which reverse-splicing fitness does the source give for A111C C150U here?
Answer: 0.709

Question: Which reverse-splicing fitness does the source give for A111G A120C A145C C169A U176A here?
Answer: 0.0086

Question: Which reverse-splicing fitness does the source give for A111G A120C A145C C169A U176C here?
Answer: 0.00508

Question: For A111G A120C A145C C169A U176G, which reverse-splicing fitness is on record?
Answer: 0.00335

Question: For A111G A120C C150G C169U U176C, which reverse-splicing fitness is on record?
Answer: 0.0152

Question: Which reverse-splicing fitness does the source give for A111G A120C C150G C169U U176A here?
Answer: 0.00767

Question: Which reverse-splicing fitness does the source give for A111G A120C C150G C169U U176G here?
Answer: 0.0044

Question: For A111G A120C A145U C150G C169U U176A, which reverse-splicing fitness is on record?
Answer: 0.0072

Question: With A111G A120C A145U C150G C169U U176C as the variant, how does the reverse-splicing fitness read?
Answer: 0.0159

Question: With A111G A120C A145U C150G C169U U176G as the variant, how does the reverse-splicing fitness read?
Answer: 0.00422

Question: With A111G A120C A145U C150A U176G as the variant, how does the reverse-splicing fitness read?
Answer: 0.024

Question: With A111G A120C A145U C150A U176A as the variant, how does the reverse-splicing fitness read?
Answer: 0.0685

Question: For A111G A120C A145U C150A U176C, which reverse-splicing fitness is on record?
Answer: 0.0741

Question: Which reverse-splicing fitness does the source give for A111G A120C A145G C169A here?
Answer: 0.0165

Question: For A111G A120C A145G C169G, which reverse-splicing fitness is on record?
Answer: 0.0121

Question: For A111G A120C A145G C169U, which reverse-splicing fitness is on record?
Answer: 0.254

Question: With A111G A120G A145C C150G U176C as the variant, how does the reverse-splicing fitness read?
Answer: 0.0228

Question: For A111G A120G A145C C150G U176A, which reverse-splicing fitness is on record?
Answer: 0.014

Question: Which reverse-splicing fitness does the source give for A111G A120G A145C C150G U176G here?
Answer: 0.00289

Question: With A111G A120C A145G C150A U176A as the variant, how does the reverse-splicing fitness read?
Answer: 0.0804

Question: Which reverse-splicing fitness does the source give for A111G A120C A145G C150A U176C here?
Answer: 0.0998

Question: Which reverse-splicing fitness does the source give for A111G A120C A145G C150A U176G here?
Answer: 0.0203

Question: Which reverse-splicing fitness does the source give for A111G A120G A145C C150G C169A here?
Answer: 0.0226

Question: With A111G A120G A145C C150G C169U as the variant, how does the reverse-splicing fitness read?
Answer: 0.0356

Question: Which reverse-splicing fitness does the source give for A111G A120G A145C C150G C169G here?
Answer: 0.0368

Question: Which reverse-splicing fitness does the source give for A111G A120C A145C C150G C169U here?
Answer: 0.0377

Question: For A111G A120C A145C C150G C169G, which reverse-splicing fitness is on record?
Answer: 0.00666

Question: Which reverse-splicing fitness does the source give for A111G A120C A145C C150G C169A here?
Answer: 0.00873

Question: Which reverse-splicing fitness does the source give for A111G A120C C150U C169G U176G here?
Answer: 0.00459

Question: With A111G A120C C150U C169G U176A as the variant, how does the reverse-splicing fitness read?
Answer: 0.0207

Question: With A111G A120C C150U C169G U176C as the variant, how does the reverse-splicing fitness read?
Answer: 0.0169

Question: For A111G A120C A145C C150G C169U U176G, which reverse-splicing fitness is on record?
Answer: 0.0038

Question: With A111G A120C A145C C150G C169U U176C as the variant, how does the reverse-splicing fitness read?
Answer: 0.0127

Question: For A111G A120C A145C C150G C169U U176A, which reverse-splicing fitness is on record?
Answer: 0.00771

Question: With A111G A120C C150A C169G U176C as the variant, how does the reverse-splicing fitness read?
Answer: 0.0196

Question: For A111G A120C C150A C169G U176A, which reverse-splicing fitness is on record?
Answer: 0.0214

Question: Which reverse-splicing fitness does the source give for A111G A120C C150A C169G U176G here?
Answer: 0.00513

Question: Which reverse-splicing fitness does the source give for A111G A120C A145U C169U U176G here?
Answer: 0.00772

Question: For A111G A120C A145U C169U U176C, which reverse-splicing fitness is on record?
Answer: 0.0719

Question: With A111G A120C A145U C169U U176A as the variant, how does the reverse-splicing fitness read?
Answer: 0.0589

Question: For A111G A120C C150G U176A, which reverse-splicing fitness is on record?
Answer: 0.0119

Question: For A111G A120C C150G U176C, which reverse-splicing fitness is on record?
Answer: 0.036

Question: With A111G A120C C150G U176G as the variant, how does the reverse-splicing fitness read?
Answer: 0.00371

Question: With A111C C169G U176A as the variant, how does the reverse-splicing fitness read?
Answer: 0.0217

Question: With A111C C169G U176G as the variant, how does the reverse-splicing fitness read?
Answer: 0.00725

Question: For A111C C169G U176C, which reverse-splicing fitness is on record?
Answer: 0.0355

Question: For A111G A120C A145G C150G C169A U176G, which reverse-splicing fitness is on record?
Answer: 0.00623

Question: Which reverse-splicing fitness does the source give for A111G A120C A145G C150G C169A U176A here?
Answer: 0.00955

Question: With A111G A120C A145G C150G C169A U176C as the variant, how does the reverse-splicing fitness read?
Answer: 0.0102

Question: Which reverse-splicing fitness does the source give for A111G A120C A145U C150A here?
Answer: 0.111

Question: For A111G A120C A145U C150G, which reverse-splicing fitness is on record?
Answer: 0.12

Question: Which reverse-splicing fitness does the source give for A111G A120C A145U C150U here?
Answer: 0.579

Question: For A111G A120C C150U C169U U176A, which reverse-splicing fitness is on record?
Answer: 0.0417

Question: With A111G A120C C150U C169U U176G as the variant, how does the reverse-splicing fitness read?
Answer: 0.00603

Question: Which reverse-splicing fitness does the source give for A111G A120C C150U C169U U176C here?
Answer: 0.0445

Question: For A111G A120G A145C C150A C169U U176G, which reverse-splicing fitness is on record?
Answer: 0.00508

Question: Which reverse-splicing fitness does the source give for A111G A120G A145C C150A C169U U176A here?
Answer: 0.0233

Question: For A111G A120G A145C C150A C169U U176C, which reverse-splicing fitness is on record?
Answer: 0.0129

Question: Which reverse-splicing fitness does the source give for A111C C169A U176C here?
Answer: 0.0285

Question: For A111C C169A U176A, which reverse-splicing fitness is on record?
Answer: 0.0188

Question: With A111C C169A U176G as the variant, how does the reverse-splicing fitness read?
Answer: 0.00548

Question: With A111G A120C A145U C150U C169U as the variant, how does the reverse-splicing fitness read?
Answer: 0.173

Question: Which reverse-splicing fitness does the source give for A111G A120C A145U C150U C169A here?
Answer: 0.013

Question: Which reverse-splicing fitness does the source give for A111G A120C A145U C150U C169G here?
Answer: 0.0111

Question: For A111C C150G U176G, which reverse-splicing fitness is on record?
Answer: 0.0131

Question: For A111C C150G U176C, which reverse-splicing fitness is on record?
Answer: 0.0763

Question: Which reverse-splicing fitness does the source give for A111C C150G U176A here?
Answer: 0.0504

Question: Which reverse-splicing fitness does the source give for A111G A120C A145G C150A C169A U176C here?
Answer: 0.0181

Question: Which reverse-splicing fitness does the source give for A111G A120C A145G C150A C169A U176A here?
Answer: 0.0185

Question: For A111G A120C A145G C150A C169A U176G, which reverse-splicing fitness is on record?
Answer: 0.00507

Question: Which reverse-splicing fitness does the source give for A111G A120C A145C C169U U176A here?
Answer: 0.0611

Question: Which reverse-splicing fitness does the source give for A111G A120C A145C C169U U176C here?
Answer: 0.061

Question: For A111G A120C A145C C169U U176G, which reverse-splicing fitness is on record?
Answer: 0.00718

Question: With A111G A120C A145U C150U C169G U176G as the variant, how does the reverse-splicing fitness read?
Answer: 0.00446

Question: For A111G A120C A145U C150U C169G U176C, which reverse-splicing fitness is on record?
Answer: 0.0106

Question: With A111G A120C A145U C150U C169G U176A as the variant, how does the reverse-splicing fitness read?
Answer: 0.014

Question: For A111G A120C A145G C150G U176G, which reverse-splicing fitness is on record?
Answer: 0.00497

Question: For A111G A120C A145G C150G U176A, which reverse-splicing fitness is on record?
Answer: 0.0105

Question: For A111G A120C A145G C150G U176C, which reverse-splicing fitness is on record?
Answer: 0.0262

Question: For A111G A120C A145U C169A U176G, which reverse-splicing fitness is on record?
Answer: 0.00333

Question: For A111G A120C A145U C169A U176A, which reverse-splicing fitness is on record?
Answer: 0.00811

Question: For A111G A120C A145U C169A U176C, which reverse-splicing fitness is on record?
Answer: 0.0103

Question: With A111G A120G A145C C150A as the variant, how does the reverse-splicing fitness read?
Answer: 0.0175

Question: For A111G A120G A145C C150G, which reverse-splicing fitness is on record?
Answer: 0.036
